Experimental findings from paper PMC5489075, “Purification and characterisation of the fission yeast Ndc80 complex” (Protein Expression and Purification, 2017) are described below.

This assay has as its target T1, Ndc80-eGFP holo complex (S. pombe, UniProt Q10198 1-624; Q10173 1-441; Q9UST6 1-198; Q10430 1-238).
T1 construct: Ndc80, S. pombe, full-length 624 a.a; Nuf2, S. pombe, full-length 441 a.a; Spc24, S. pombe, full-length 198 a.a; Spc25, S. pombe, full-length 238 a.a; also called Ndc80 holo complex; Ndc80 complex; source: E. coli BL21 (DE3) RIL; two sub-complexes purified, mixed, purified (Ni-TED, TEV cleavage, Superose 6 size-exclusion chromatography); not shown: 6His-Z, N-terminal, cleaved; Z-tag, N-terminal, …
Put plainly: TIRF microscopy; 100 pM Ndc80-eGFP holo complex on dynamic Cy5-microtubules with 10 nM unlabelled Dis1 or 20 nM unlabelled Mal3; read-out is the place of the eGFP signal (lattice or growing plus end); BRB80 with 85 mM KCl, 30 °C. Particulars: both partners purified.

T1 sequence (Q10198 whole entry, chain 1 of 4): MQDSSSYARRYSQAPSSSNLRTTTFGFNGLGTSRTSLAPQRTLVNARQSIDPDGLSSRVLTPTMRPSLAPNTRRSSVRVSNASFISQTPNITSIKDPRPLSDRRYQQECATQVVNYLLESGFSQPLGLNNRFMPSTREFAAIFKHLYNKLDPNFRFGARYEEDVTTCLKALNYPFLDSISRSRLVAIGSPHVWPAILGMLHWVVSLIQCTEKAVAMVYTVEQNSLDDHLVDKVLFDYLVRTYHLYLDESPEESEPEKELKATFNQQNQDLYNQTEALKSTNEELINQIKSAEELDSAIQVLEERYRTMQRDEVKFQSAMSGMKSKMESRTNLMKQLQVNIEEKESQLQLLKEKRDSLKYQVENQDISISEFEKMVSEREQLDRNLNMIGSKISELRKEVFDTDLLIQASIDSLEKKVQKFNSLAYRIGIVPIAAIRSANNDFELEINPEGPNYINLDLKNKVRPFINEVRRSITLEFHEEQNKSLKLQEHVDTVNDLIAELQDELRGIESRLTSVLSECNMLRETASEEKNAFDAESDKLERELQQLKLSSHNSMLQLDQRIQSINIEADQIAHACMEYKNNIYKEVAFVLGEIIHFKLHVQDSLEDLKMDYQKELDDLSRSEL
T1 sequence (Q10173 whole entry, chain 2 of 4): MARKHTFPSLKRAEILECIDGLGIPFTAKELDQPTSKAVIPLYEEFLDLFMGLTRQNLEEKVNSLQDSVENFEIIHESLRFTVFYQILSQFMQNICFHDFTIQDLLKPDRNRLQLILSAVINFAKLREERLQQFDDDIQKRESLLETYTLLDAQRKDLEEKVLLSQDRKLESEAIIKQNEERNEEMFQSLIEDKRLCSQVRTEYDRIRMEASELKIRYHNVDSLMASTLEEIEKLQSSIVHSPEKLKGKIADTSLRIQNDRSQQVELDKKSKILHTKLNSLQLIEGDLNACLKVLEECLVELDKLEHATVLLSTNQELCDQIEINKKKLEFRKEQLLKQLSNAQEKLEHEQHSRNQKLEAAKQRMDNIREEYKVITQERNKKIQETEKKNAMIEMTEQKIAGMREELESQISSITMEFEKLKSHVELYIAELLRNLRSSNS
T1 sequence (Q9UST6 whole entry, chain 3 of 4): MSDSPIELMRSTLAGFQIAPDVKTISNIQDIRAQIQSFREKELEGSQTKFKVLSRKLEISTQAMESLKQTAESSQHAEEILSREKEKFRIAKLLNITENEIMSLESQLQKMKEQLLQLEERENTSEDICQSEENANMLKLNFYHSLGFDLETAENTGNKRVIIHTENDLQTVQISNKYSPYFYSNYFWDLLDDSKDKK
T1 sequence (Q10430 whole entry, chain 4 of 4): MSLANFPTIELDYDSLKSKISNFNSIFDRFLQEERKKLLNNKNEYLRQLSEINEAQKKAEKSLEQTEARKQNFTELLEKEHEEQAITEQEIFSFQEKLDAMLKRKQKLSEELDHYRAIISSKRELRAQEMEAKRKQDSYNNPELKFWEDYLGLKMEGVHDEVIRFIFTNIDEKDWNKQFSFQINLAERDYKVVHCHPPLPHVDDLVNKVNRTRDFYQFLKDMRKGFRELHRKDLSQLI

B1: Mal3 (natural protein, S. pombe, UniProt Q10113 1-308, looked up)
chain: MSESRQELLAWINQVTSLGLTRIEDCGKGYAMIQIFDSIYQDIPLKKVNFECNNEYQYINNWKVLQQVFLKKGIDKVVDPERLSRCKMQDNLEFVQWAKRFWDQYYPGGDYDALARRGNRGPANTRVMNSSAGATGPSRRRQVSSGSSTPSMTKSSANNNNVSSTANTAAVLRAKQAQQQITSLETQLYEVNETMFGLERERDFYFNKLREIEILVQTHLTTSPMSMENMLERIQAILYSTEDGFELPPDQPADLTTALTDHDTNNVAEEAQMTDLKDSETQRVPSAPDFVHARLQSLEVDDDENITF
notes: Mal3, fission yeast EB1 microtubule plus-end tracking protein; also called Mal3/EB1; unlabelled Mal3
Take B1: the binding result is “binds”.
